The target in test [1] is T1, human IL-2Rγ expressed on cells (NK-92, Jurkat) (human) (UniProt P31785).
T1 sequence (looked up): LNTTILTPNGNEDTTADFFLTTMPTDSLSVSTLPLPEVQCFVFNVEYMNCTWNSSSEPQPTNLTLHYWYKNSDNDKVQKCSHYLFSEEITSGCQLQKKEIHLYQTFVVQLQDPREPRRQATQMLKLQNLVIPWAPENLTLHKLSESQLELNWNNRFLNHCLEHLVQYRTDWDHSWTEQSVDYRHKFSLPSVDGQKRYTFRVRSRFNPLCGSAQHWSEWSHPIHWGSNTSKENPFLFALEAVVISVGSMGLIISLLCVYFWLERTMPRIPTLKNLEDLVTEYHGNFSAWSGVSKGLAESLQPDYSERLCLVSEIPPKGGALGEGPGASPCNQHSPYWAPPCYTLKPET
Nature of the test: flow cytometry on NK-92 cells (endogenous human IL-2Rg), antibody 10 ug/ml. Background: In flow cytometry, cells or beads pass a laser one at a time.

The target of test [2] is Human IL2Rγ extracellular domain expressed with a C-terminal mouse IgG2a Fc tag (human). Nature of the test: SPR Biacore 4000, mAb captured by anti-human Fc, 25 C.
Test [3] addresses T2, mouse IL-2Rγ expressed on cells (MC/9) (mouse) (UniProt P34902).
T2 sequence (looked up): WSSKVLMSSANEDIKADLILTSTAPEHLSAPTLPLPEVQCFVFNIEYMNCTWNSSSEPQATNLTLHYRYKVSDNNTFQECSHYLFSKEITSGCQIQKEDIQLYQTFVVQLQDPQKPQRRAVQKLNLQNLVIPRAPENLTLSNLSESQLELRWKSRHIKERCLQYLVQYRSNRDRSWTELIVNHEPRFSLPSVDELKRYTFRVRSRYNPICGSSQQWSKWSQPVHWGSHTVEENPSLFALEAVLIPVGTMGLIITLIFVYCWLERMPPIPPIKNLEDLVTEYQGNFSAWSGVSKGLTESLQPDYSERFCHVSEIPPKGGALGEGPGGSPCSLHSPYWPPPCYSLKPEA
Nature of the test: flow cytometry on MC/9 cells (endogenous mouse IL-2Rg), antibody 10 ug/ml.

The target in test [4] is T1, human IL-2Rγ expressed on cells (NK-92, Jurkat) (human). Nature of the test: flow cytometry on Jurkat cells (endogenous human IL-2Rg), antibody 10 ug/ml.
The target in test [5] is T3, human IL2Rγ expressed on cells (human) (UniProt P31785).
T3 sequence (looked up): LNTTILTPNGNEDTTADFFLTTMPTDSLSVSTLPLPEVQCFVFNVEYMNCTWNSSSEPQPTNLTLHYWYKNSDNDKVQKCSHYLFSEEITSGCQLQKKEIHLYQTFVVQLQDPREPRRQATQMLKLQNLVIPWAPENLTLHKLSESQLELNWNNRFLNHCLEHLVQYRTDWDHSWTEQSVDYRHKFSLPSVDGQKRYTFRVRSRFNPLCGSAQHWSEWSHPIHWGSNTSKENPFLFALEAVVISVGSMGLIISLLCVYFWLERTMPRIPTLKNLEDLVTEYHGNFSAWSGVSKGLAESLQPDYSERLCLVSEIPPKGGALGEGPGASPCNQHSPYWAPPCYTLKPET
As to the kind of experiment: cell-based or functional assay.

B1: H4H13541P (antibody, human IgG4 S228P, kappa, V domains shown)
VH: EVQLVESGGGVVRPGGSLRLSCAASGFIFDDYDMSWVRQPPGRGLEWVSGIDWFGGTRGYADSMKGRFTISRDNAKNSLYLQMNSLRVEDTAFYYCARGGAIVGAVTPFDYWGQGTLVTVSS
VL: DIQMTQSPSSLSASVGNRVTLSCRASQSINTYLSWYQQRPGKAPKLLIYAASSLQSGVPSRFSGSGAGTDFTLTISSLQPEDFATYYCQQSYSAPLTFGGGTKVEIKR
Consider B1, for which, in test [1], the Binding Ratio (Sample over unstained MFIs) was found to be 37 and the Raw MFI was 7050 MFI.

B2: H4H12899P (antibody, human IgG4 S228P, kappa, V domains shown)
VH: QVQLVESGGDLVKPGGSLRLSCATSGFTFSDFYMTWIRQAPGKGLEWISYISNSGSIVKYADSVKGRFTISRDNAKNSLYLQMNSLRAEDTAIYYCARFYGDRWGQGTLVTVSS
VL: DIQLTQSPSFLSASVGDRVTITCWASQGISTFLAWYQQKPGKAPKLLIYAASTLQSGVPSRFSGSGSGTDFTLTISSLQPEDFATYHCQQLNNYPWTFGQGTKVEIKR
Take B2: the 100 nM Ag Bound in test [2] stood at 1 RU. The results for the Binding Ratio (Sample over unstained MFIs) in test [3], in test [1] and in test [4] were 1, 18 and 1, respectively. Also, the values for the Raw MFI in test [3], in test [1] and in test [4] were 167 MFI, 2670 MFI and 114 MFI, respectively.

B3: H4H12900P (antibody, human IgG4 S228P, kappa, V domains shown)
VH: QVQLVESGGGLVKPGGSLRLSCEASGFTFNDFYMTWIRQAPGKGLEWIAYISKSGDKMRYADSVKGRFSTSRDNAKNSLSLQMNSLRAEDTAVYYCARFYGDIWGQGTLVTVSS
VL: DIQLTQSPSFLSASVGDRVTITCWASQDISSFLVWYQQKPGKAPNLLIYAASALQSGVPSRFSGSGSGTEFTLTISSLQPEDFASYYCEQLNNYPWTFGQGTKVEIKR
On to B3, for which the 100 nM Ag Bound in test [2] was determined as 4 RU. For the same molecule, the Binding Ratio (Sample over unstained MFIs) worked out at 1 in test [3], 28 in test [1] and 1 in test [4]. Moreover, the Raw MFI in test [3] came out at 128 MFI; in test [1], 4200 MFI; in test [4], 110 MFI.

B4: H4H12874P (antibody, human IgG4 S228P, kappa, V domains shown)
VH: QVQLVESGGGVVQPGRSLRLSCAASGFNFRNFGMHWVRQAPGKGLEWVAGILYDGSSKYYADSVKDRFTISRDNSKNTLFLQMNSLRAEDTAMYYCAKEEDTAMVPFDSWGPGTLVTVSS
VL: DIQLTQSPSFLSASVGDRVTITCWASQGISSYLAWYQQKPGKAPTLLIYAASTLQSGVPSRFSGSGSGTEFTLTISSLQPEDFASYYCQQLKSYPLTFGGGTKVEIKR
B4: the Binding Ratio (Sample over unstained MFIs) in test [3] stood at 1; in test [1], 44; in test [4], 6. Besides, the Raw MFI is 202 MFI in test [3], 6580 MFI in test [1] and 507 MFI in test [4].

B5: H4H12857P (antibody, human IgG4 S228P, kappa, V domains shown)
VH: EVQLVESGGGVVRPGGSLRLSCAASGFTFDDFDMSWVRQGPGKGLEWVSGINWHGSSTGYADSVKGRFTISRDNAKNSLYLQMSSLRAEDTALYHCVRGGTIVGATTPLDYWGQGTLVTVSS
VL: DIQMTQSPSSLSASVGDRVTMTCRASRTISSYLSWYQQKSGKVPNLLIFGASSLQSGVPSRFSASGSGTDFTLIISSLQPEDFATYYCQQSYSSPLTFGGGTKVEIKR
Take B5: the Binding Ratio (Sample over unstained MFIs) is 1 in test [3], 37 in test [1] and 1 in test [4]. Also, the Raw MFI in test [3] was found to be 198 MFI; in test [1] it was 5490 MFI; in test [4] it was 103 MFI.

B6: human IL-7 (ligand, UniProt P13232 26-177, looked up)
chain: DCDIEGKDGKQYESVLMVSIDQLLDSMKEIGSNCLNNEFNFFKRHICDANKEGMFLFRAARKLRQFLKMNSTGDFDLHLLKVSEGTTILLNCTGQVKGRKPAALGEAQPTKSLEENKSLKEQKKLNDLCFLKRLLQEIKTCWNKILMGTKEH
Molecule B6 came in with an EC50 [M] of ligand; NK92/hIL7R/STAT3-luc in test [5] of 3.9e-11 M.

B7: H4H12858P (antibody, human IgG4 S228P, kappa, V domains shown)
VH: EVQLVESGGDLVQPGGSLRLSCTASGFIFRNYAMNWVRQAPGKGLEWLSGILGSNDNTYYVDSVKGRFTISRDNSRNTLYLQMNSLRAEDSAVYYCAKGDAGGFDYWGQGTLVTVSS
VL: DVVMTQSPLSLPVILGQPASISCRSSQSLVSSDGNTYLNWFQQRPGQSPRRLIYKVSNRDSGVPDRFSGSGSGTDFTLKISRVEAEDVGAYYCMQGSYWPPTFGQGTKLEIKR
For the molecule B7, the Binding Ratio (Sample over unstained MFIs) was 1 in test [3], 2 in test [1] and 1 in test [4]. The Raw MFI in test [3] was determined as 199 MFI; in test [1], 228 MFI; in test [4], 99 MFI.

B8: H4H13538P (antibody, human IgG4 S228P, kappa, V domains shown)
VH: EVQLVESGGGLVQPGGSLGLSCAASGFTFSNYAMSWVRQAPGKGLEWVSAVSGGGGGTYYADSVKGRFTISRDNSKNTVLLQMNSLRAEDTAVYYCARGRTGGLDYWGPGTLVTVSS
VL: DVVMTQSPLSLPVIFGQPASISCRSSQSLVDSDGNTYLNWLQQRPGQSPRRLIYEVSNRDSGVPDRFSGSGSGTDFTLTISRVEAEDVGIYYCMQGTRWPPTFGGGTKVEIKR
Take B8: in test [1], the Binding Ratio (Sample over unstained MFIs) came to 1 and the Raw MFI was determined as 235 MFI.

B9: H4H12863P (antibody, human IgG4 S228P, kappa, V domains shown)
VH: QVQLVESGGGVVQPGRSLRLSCTASGFTFRSYDMYWVRQAPGKGLEWVSVITYDGNNKYYADSVKGRFTISRDNSKNTLFLQMSSLRPEDTAVYYCAKRGLIWVGESFDYWGQGTLVTVSS
VL: DIQMTQSPSTLSASVGDRVTITCRASQSINSWLAWYQQKPGKAPNLLIYKASSLESGVPSRFSGSGSGTEFTLTISSLQPDDFATYYCQQYKSYSWTFGQGTKVEIKR
As for B9, the Binding Ratio (Sample over unstained MFIs) in test [3] came to 1; in test [1] it was 87; in test [4], 13. For the same molecule, the figures for the Raw MFI in test [3], in test [1] and in test [4] were 185 MFI, 13000 MFI and 1170 MFI, respectively.

For the origin of these results see patent US20230279131A1.
